Common to all, as to assay: BLI
A general note: In BLI a coated tip is dipped into the sample, and binding shifts an interference pattern.

The target of assay [1] is T1, FMDV O/Tibet/99 146S antigen (foot-and-mouth disease virus serotype …).
Assay [2] addresses T2, FMDV A/AF72 146S antigen (foot-and-mouth disease virus serotype …).
Assay [3] deals with T2, FMDV A/AF72 146S antigen. This is another data set of the same source.
Assay [4] has as its target T1, FMDV O/Tibet/99 146S antigen. The source holds these as a separate data set.

B1: pOA-1 (antibody, V domains shown)
VH: EENVVESGGGLVRPGGSLRLSCIFSGFTFSTYSVRWVRQAPGKGLEFLTYIFKNVGDIDTADSVKGRFTISRDNSQNTAYLQMNSLRPEDTARYFCLVANKYWGPGVEVLVSS
VL: AIVLTQSPLSLSVSPGDSASISCRSSQSLVEDDGSSVLNWYLQRPGQSPQRLIYSAVGRDAGVPDRFSGSGSGTDFTLTISGVEAEDLGVYYCQQSKVSTTFGAGSKLDLK
As usually defined, the koff is the first-order rate constant of dissociation. Usually Kd stands for the equilibrium constant for the complex coming apart. B1: the koff in assay [1] is 2.88e-05 s⁻¹; in assay [2], 0.00467 s⁻¹. Moreover, the Kd in assay [3] turned out to be 2.48 nM.

B2: pOA-13 (antibody, V domains shown)
VH: EGQLVQSGGGRVQPGGSLRLVCVGSGDDGLGHYAVTWVRQAPGRGLEWLASDASRVTTTYYADSVKGRFTSTLDIPHNTAYLQMNSLKTEDTARYFCARNVWTLDIWGPGVEVVVS
VL: QTVIQEPAMSVSLGGTVTLTCAFRGGSVDGDNYPGWLRQQTPGQPPRLLISSTNNRPTGVPSRFSGTISGNKATLTITGAQTEDEADYFCALWNDNNNRLIFGGGTRLTVL
For the molecule B2, the koff in assay [1] worked out at 0.00143 s⁻¹; in assay [2], 0.00634 s⁻¹. The Kd is 1.8 nM in assay [4] and 5.11 nM in assay [3].

B3: pOA-2 (antibody, V domains shown)
VH: EEKVVESGGGLVQPGGSLRLSCVGSGFNFKNYEINWVRQAPGKALEWLAYITQTSDFIYYADSVKGRFTISRDNSRNTAYLQMNNLRTEDTARYFCTRAGLTGCKSRHCMYVWGPGAEVVVSS
VL: QTVIQEPAMSVSLGGTVTLTCGFISGSVTGTNYPSWFQQTPGQPPRLLIYYANSRPTEVPSRFSGAISGNKAALTITGAQAEDEADYFCCLYKTNNNILFGGGTHLTVL
Turning to B3, the koff in assay [1] came out at 0.00242 s⁻¹; in assay [2], 0.00249 s⁻¹. Moreover, the values for the Kd in assay [4] and in assay [3] were 4.85 nM and 4.44 nM, respectively.
